Experimental data as given in patent US20250340608A1 (PROTAGONIST THERAPEUTICS, published 2025).
Numbered stars: 1 amine (or outer) side, 2 acyl side, 3 side chain; on linkers, the order of the positions; unused ones are H or OH. Bridge positions count the residues as written; N and C are the ends. Square brackets hold non-standard residues; d marks the D form. Ends that are not written are not given here. * marks the point of attachment. Ida = iminodiacetic acid, O=C(CN(CC(=O)[*:3])[*:1])[*:2]; Myristoyl = CCCCCCCCCCCCCC(=O)*; β3hP = O=C(O)C[C@@H]1CCCN1; Isovaleryl = CC(C)CC(=O)*; Octanoyl = CCCCCCCC(=O)*; Albu = not defined here

T1: human ferroportin (SLC40A1) fused in frame with GFP, stably expressed in HEK293 cells (human, UniProt Q9NP59 1-571)
T1 sequence (looked up): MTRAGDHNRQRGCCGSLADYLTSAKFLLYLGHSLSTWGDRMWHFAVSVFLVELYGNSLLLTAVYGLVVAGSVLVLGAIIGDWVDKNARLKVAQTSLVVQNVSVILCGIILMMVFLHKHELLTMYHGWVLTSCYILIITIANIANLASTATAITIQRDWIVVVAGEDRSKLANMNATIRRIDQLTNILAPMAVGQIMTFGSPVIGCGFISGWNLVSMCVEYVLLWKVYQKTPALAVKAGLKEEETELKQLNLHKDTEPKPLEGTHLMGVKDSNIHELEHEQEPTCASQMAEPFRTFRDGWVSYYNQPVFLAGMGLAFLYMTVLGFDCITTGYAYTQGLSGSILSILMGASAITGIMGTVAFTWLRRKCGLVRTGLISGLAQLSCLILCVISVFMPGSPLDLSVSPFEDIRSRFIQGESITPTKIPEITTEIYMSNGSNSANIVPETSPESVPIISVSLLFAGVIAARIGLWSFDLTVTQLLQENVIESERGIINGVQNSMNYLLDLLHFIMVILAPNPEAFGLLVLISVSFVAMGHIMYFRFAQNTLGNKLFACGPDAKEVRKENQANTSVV

B1: Compound 291 (peptide)
peptide: Isovaleryl-DTHFPCIKF-NH2
SMILES: CC[C@H](C)[C@H](NC(=O)[C@H](CS)NC(=O)[C@@H]1CCCN1C(=O)[C@H](Cc1ccccc1)NC(=O)[C@H](Cc1c[nH]cn1)NC(=O)[C@@H](NC(=O)[C@H](CC(=O)O)NC(=O)CC(C)C)[C@@H](C)O)C(=O)N[C@@H](CCCCN)C(=O)N[C@@H](Cc1ccccc1)C(N)=O
B2: Compound 288 (peptide)
peptide: Isovaleryl-DTHFPCIIF-NH2
SMILES: CC[C@H](C)[C@H](NC(=O)[C@H](CS)NC(=O)[C@@H]1CCCN1C(=O)[C@H](Cc1ccccc1)NC(=O)[C@H](Cc1c[nH]cn1)NC(=O)[C@@H](NC(=O)[C@H](CC(=O)O)NC(=O)CC(C)C)[C@@H](C)O)C(=O)N[C@H](C(=O)N[C@@H](Cc1ccccc1)C(N)=O)[C@@H](C)CC
B3: Compound 358 (peptide)
peptide: DTHFPCIKFKPHSKECK
modifications: not fully specified; N-terminal isovaleric acid; K10(isoglu-Palm); C-terminal NH2

biological target: T1, human ferroportin (SLC40A1) fused in …; experiment: cell-based or functional assay

Binder	% Activity At 1 uM [%]	EC50 (nM) (n = 3)
B1	100	7
H-DTHFPCIF-NH2 (also: homodimer via disulfide between Cys6 of each monomer) [Compound 312]	–	> 300
H-DTHFPCILK-NH2 (also: homodimer via disulfide between Cys6 of each monomer) [Compound 322]	–	> 300
H-DTHFPCIKFF-NH2 [Compound 297]	–	> 300
H-DTHFPCIF-NH2 [Compound 293]	–	> 1000
H-DTKFPCIIF-NH2 (also: homodimer via disulfide between Cys6 of each monomer) [Compound 317]	–	137
Isovaleryl-DTHFPCIIF-NH2 (also: homodimer via disulfide between Cys6 of each monomer) [Compound 325]	100	–
H-DTHFPCILK-NH2 [Compound 309]	–	> 300
H-DTHFPCIIK-NH2 [Compound 304]	–	> 1000
H-DTHFPCIIR-NH2 (also: homodimer via disulfide between Cys6 of each monomer) [Compound 319]	–	268
H-DTHFPCIKFF-NH2 (also: homodimer via disulfide between Cys6 of each monomer) [Compound 314]	–	130
H-DTHFPCIIK-NH2 (also: homodimer via disulfide between Cys6 of each monomer) [Compound 318]	–	> 300
H-DTHFPCIEK-NH2 (also: homodimer via disulfide between Cys6 of each monomer) [Compound 323]	0	> 1000
B2	100	–
H-DTHFPCIEK-NH2 [Compound 310]	0	> 1000
H-DTHFPCIIR-NH2 [Compound 305]	–	> 1000
H-DTKFPCIIF-NH2 [Compound 302]	–	> 1000

biological target: T1, human ferroportin (SLC40A1) fused in …; experiment: cell-based or functional assay; remark: another data set of the same source

Binder	Potency EC50 [nM]	Potency EC50 (nM)	Potency: % (activity) at 1 µM [%]
B1	7	–	–
[Ida]THFPCIKFEPRSKGWVCK(Myristoyl)-NH2 (disulfide 6-18 (inferred)) [Compound 254]	20	–	–
H-DTHFPCAIF-NH2 [Compound 279]	–	> 1000	–
H-DTHFPCIKFF-NH2 [Compound 297]	–	–	64
B3	6	–	–
H-DTHFPCIF-NH2 [Compound 293]	–	–	52
H-DTHFPCIVF-NH2 [Compound 307]	–	–	75
H-DTHFPCILF-NH2 [Compound 308]	–	–	89
H-DTHFPCIIA-NH2 [Compound 278]	–	> 1000	–
H-DTHFPCILK-NH2 [Compound 309]	–	–	55
Isovaleryl-DTHFPCIKFEPHSK(Albu)GCK-NH2 (disulfide 6-16 (inferred); reading uncertain) [Compound 265]	6	–	–
H-DTHFPCIIK-NH2 [Compound 304]	–	–	55
DTHFPCIKFKPRSKGWVC (N-terminal isovaleric acid; K10(lauric acid); C-terminal NH2) [Compound 248]	10	–	–
H-ETHFPCIIF-NH2 [Compound 300]	–	–	77
[Ida]THF[β3hP]CIIF-NH2 [Compound 285]	–	> 1000	–
H-ATHFPCIIF-NH2 [Compound 284]	–	> 1000	–
H-LTHFPCIIF-NH2 [Compound 299]	–	–	64
Isovaleryl-DTAFPCIKFEPRSKEC-NH2 (disulfide 6-16 (inferred)) [Compound 267]	–	> 1000	–
H-DTHFPCIEF-NH2 [Compound 287]	–	> 1000	–
H-DTAFPCIIF-NH2 [Compound 283]	739	–	–
H-DTHFPCIEK-NH2 [Compound 310]	–	–	0
H-DTHFPCIIR-NH2 [Compound 305]	–	–	62
DTHFPCIKFKPRSKGWVC (N-terminal isovaleric acid; K10(octanoic acid); C-terminal NH2) [Compound 250]	30	–	–
Isovaleryl-HFPCIKFEPRSKGWVCK(Octanoyl)-NH2 (disulfide 4-16 (inferred)) [Compound 261]	> 300	–	–
H-DTHFACIIF-NH2 [Compound 280]	–	> 1000	–
Isovaleryl-DTHFPCIKKEPHSKECK-NH2 (not fully specified (bridges); cysteine pairing not given here) [Compound 357]	–	> 1000	–
H-DTKFPCIIF-NH2 [Compound 302]	–	–	60

biological target: T1, human ferroportin (SLC40A1) fused in …; experiment: cell-based or functional assay; remark: another data set of the same source

Binder	In Vitro Activity EC50 [nM]
Isovaleryl-DTHFPCIQFGPRSKGWVCK-NH2 (not fully specified (bridges); cysteine pairing not given here) [Compound 10]	35
Isovaleryl-DTHFPCIIFGPRSKGCK-NH2 (not fully specified (bridges); cysteine pairing not given here) [Compound 115]	21
Isovaleryl-DTHFPCIIFEPRSKGWVCK-NH2 (not fully specified (bridges); cysteine pairing not given here) [Compound 105]	10
Isovaleryl-DTHFPCIKFGPRSKGWVCK-NH2 (not fully specified (bridges); cysteine pairing not given here) [Compound 9]	32
